# Laboratory results as given in the supplement of paper PMC5998384.
# Legend:
# HeLa Kyoto [1] = experiment: solubility in G1/S (NP-40 vs SDS abundance) (log2 ratio); higher = more soluble; conditions: cell cycle stage: G1/S
# HeLa Kyoto [2] = experiment: melting temperature (median over replicates), in situ; higher = more thermally stable
# HeLa Kyoto [3] = experiment: solubility change mitosis vs G1/S (difference of NP-40 vs SDS log2 ratios) (log2 ratio difference); higher = more soluble in mitosis
# HeLa Kyoto [4] = experiment: thermal stability score vs G1/S (z-score of summed log2 fold changes over temperatures); higher = more thermally stable than in G1/S
# [5] = cell cycle stage: early G1 (4.5 h after nocodazole release)
# 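Throughout, for melting temperature (median over replicates), in situ: HeLa Kyoto cells synchronized by double thymidine or nocodazole block, proteins quantified by TMT10plex mass spectrometry, three independent biological replicates.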
# 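Throughout, for solubility change mitosis vs G1/S (difference of NP-40 vs SDS log2 ratios): synchronized HeLa Kyoto cells (double thymidine block for G1/S, nocodazole release for mitosis), protein amounts in NP-40 versus SDS lysates quantified by mass spectrometry, three biological replicates.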
# 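Throughout, for solubility in G1/S (NP-40 vs SDS abundance): HeLa Kyoto cells arrested at G1/S by double thymidine block, proteins quantified by TMT10plex mass spectrometry in mild NP-40 versus SDS extracts, three biological replicates.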
# 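Throughout, for thermal stability score vs G1/S (z-score of summed log2 fold changes over temperatures): synchronized HeLa Kyoto cells, proteins quantified by TMT10plex mass spectrometry, three biological replicates, mitosis taken 0.5 h after nocodazole release, G1/S directly after double thymidine block.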
# Chain of TIMM50 (chain, as listed by the source): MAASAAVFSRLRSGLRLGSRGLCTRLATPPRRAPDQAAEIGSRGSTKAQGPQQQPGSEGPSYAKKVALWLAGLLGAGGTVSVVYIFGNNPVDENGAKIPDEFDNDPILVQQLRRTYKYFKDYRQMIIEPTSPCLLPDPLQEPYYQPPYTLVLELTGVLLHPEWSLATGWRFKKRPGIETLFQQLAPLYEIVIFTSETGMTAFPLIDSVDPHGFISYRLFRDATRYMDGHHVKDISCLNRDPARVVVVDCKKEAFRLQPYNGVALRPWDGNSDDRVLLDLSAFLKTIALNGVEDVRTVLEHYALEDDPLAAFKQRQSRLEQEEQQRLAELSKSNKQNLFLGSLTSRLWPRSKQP
substance,measurement,setting,value
TIMM50,solubility in G1/S (log2),HeLa Kyoto [1],0.393
same,melting temperature,HeLa Kyoto [2]; cell cycle stage: G1/S,51.4 °C
same,melting temperature,HeLa Kyoto [2]; cell cycle stage: mitosis,50.8 °C
same,solubility change mitosis (log2),HeLa Kyoto [3],-0.0286
same,thermal stability score,HeLa Kyoto [4]; [5],-0.406
same,thermal stability score,HeLa Kyoto [4]; cell cycle stage: mitosis,-0.388
MSGCGLFLRTTAAARACRGLVVSTANRRLLRTSPPVRAFAKELFLGKIKKKEVFPFPEVSQDELNEINQFLGPVEKFFTEEVDSRKIDQEGKIPDETLEKLKSLGLFGLQVPEEYGGLGFSNTMYSRLGEIISMDGSITVTLAAHQAIGLKGIILAGTEEQKAKYLPKLASGEHIAAFCLTEPASGSDAASIRSRATLSEDKKHYILNGSKVWITNGGLANIFTVFAKTEVVDSDGSVKDKITAFIVERDFGGVTNGKPEDKLGIRGSNTCEVHFENTKIPVENILGEVGDGFKVAMNILNSGRFSMGSVVAGLLKRLIEMTAEYACTRKQFNKRLSEFGLIQEKFALMAQKAYVMESMTYLTAGMLDQPGFPDCSIEAAMVKVFSSEAAWQCVSEALQILGGLGYTRDYPYERILRDTRILLIFEGTNEILRMYIALTGLQHAGRILTTRIHELKQAKVSTVMDTVGRRLRDSLGRTVDLGLTGNHGVVHPSLADSANKFEENTYCFGRTVETLLLRFGKTIMEEQLVLKRVANILINLYGMTAVLSRASRSIRIGLRNHDHEVLLANTFCVEAYLQNLFSLSQLDKYAPENLDEQIKKVSQQILEKRAYICAHPLDRTC [ACAD9],solubility in G1/S (log2),HeLa Kyoto [1],-0.06
same,melting temperature,HeLa Kyoto [2]; cell cycle stage: G1/S,54.6 °C
same,melting temperature,HeLa Kyoto [2]; cell cycle stage: mitosis,54.7 °C
same,solubility change mitosis (log2),HeLa Kyoto [3],-0.164
same,thermal stability score,HeLa Kyoto [4]; [5],4.01
same,thermal stability score,HeLa Kyoto [4]; cell cycle stage: mitosis,3.04
MRPQELPRLAFPLLLLLLLLLPPPPCPAHSATRFDPTWESLDARQLPAWFDQAKFGIFIHWGVFSVPSFGSEWFWWYWQKEKIPKYVEFMKDNYPPSFKYEDFGPLFTAKFFNANQWADIFQASGAKYIVLTSKHHEGFTLWGSEYSWNWNAIDEGPKRDIVKELEVAIRNRTDLRFGLYYSLFEWFHPLFLEDESSSFHKRQFPVSKTLPELYELVNNYQPEVLWSDGDGGAPDQYWNSTGFLAWLYNESPVRGTVVTNDRWGAGSICKHGGFYTCSDRYNPGHLLPHKWENCMTIDKLSWGYRREAGISDYLTIEELVKQLVETVSCGGNLLMNIGPTLDGTISVVFEERLRQMGSWLKVNGEAIYETHTWRSQNDTVTPDVWYTSKPKEKLVYAIFLKWPTSGQLFLGHPKAILGATEVKLLGHGQPLNWISLEQNGIMVELPQLTIHQMPCKWGWALALTNVI [FUCA2],solubility in G1/S (log2),HeLa Kyoto [1],-0.00865
same,melting temperature,HeLa Kyoto [2]; cell cycle stage: G1/S,54.8 °C
same,melting temperature,HeLa Kyoto [2]; cell cycle stage: mitosis,54.8 °C
same,solubility change mitosis (log2),HeLa Kyoto [3],-0.00976
same,thermal stability score,HeLa Kyoto [4]; [5],2.46
same,thermal stability score,HeLa Kyoto [4]; cell cycle stage: mitosis,3.64
MPQTRSQAQATISFPKRKLSRALNKAKNSSDAKLEPTNVQTVTCSPRVKALPLSPRKRLGDDNLCNTPHLPPCSPPKQGKKENGPPHSHTLKGRRLVFDNQLTIKSPSKRELAKVHQNKILSSVRKSQEITTNSEQRCPLKKESACVRLFKQEGTCYQQAKLVLNTAVPDRLPAREREMDVIRNFLREHICGKKAGSLYLSGAPGTGKTACLSRILQDLKKELKGFKTIMLNCMSLRTAQAVFPAIAQEICQEEVSRPAGKDMMRKLEKHMTAEKGPMIVLVLDEMDQLDSKGQDVLYTLFEWPWLSNSHLVLIGIANTLDLTDRILPRLQAREKCKPQLLNFPPYTRNQIVTILQDRLNQVSRDQVLDNAAVQFCARKVSAVSGDVRKALDVCRRAIEIVESDVKSQTILKPLSECKSPSEPLIPKRVGLIHISQVISEVDGNRMTLSQEGAQDSFPLQQKILVCSLMLLIRQLKIKEVTLGKLYEAYSKVCRKQQVAAVDQSECLSLSGLLEARGILGLKRNKETRLTKVFFKIEEKEIEHALKDKALIGNILATGLP [CDC6],solubility in G1/S (log2),HeLa Kyoto [1],-0.114
same,melting temperature,HeLa Kyoto [2]; cell cycle stage: G1/S,50.1 °C
same,melting temperature,HeLa Kyoto [2]; cell cycle stage: mitosis,53.2 °C
same,solubility change mitosis (log2),HeLa Kyoto [3],0.351
same,thermal stability score,HeLa Kyoto [4]; [5],0.564
same,thermal stability score,HeLa Kyoto [4]; cell cycle stage: mitosis,0.496
MTELETAMGMIIDVFSRYSGSEGSTQTLTKGELKVLMEKELPGFLQSGKDKDAVDKLLKDLDANGDAQVDFSEFIVFVAAITSACHKYFEKAGLK [S100P],solubility in G1/S (log2),HeLa Kyoto [1],-0.525
same,melting temperature,HeLa Kyoto [2]; cell cycle stage: G1/S,54.1 °C
same,melting temperature,HeLa Kyoto [2]; cell cycle stage: mitosis,51 °C
same,solubility change mitosis (log2),HeLa Kyoto [3],0.32
same,thermal stability score,HeLa Kyoto [4]; [5],-0.94
same,thermal stability score,HeLa Kyoto [4]; cell cycle stage: mitosis,-5.53
